This is an account of results in the nanobody polyreactivity screen of Harvey et al. (2022).

A short description of this data set: yeast display, Sf9 membrane polyspecificity reagent, FACS + sequencing; frameworks hold sequencing errors. The gist of the method: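 Sorting gates, low and high (top ~1%), were placed on anti-HA fluorescence to track expression and on streptavidin fluorescence to track reagent binding. A clone's polyreactivity label is taken from the gate it came out of. The reagent was 10% biotinylated, detergent-solubilized Sf9 membrane, applied for 1 hour at 4 °C to galactose-induced yeast display cells.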
Turning to “QVQLVESGGGLVQAGGSLRLSCAASGSTFYYYAMGWYRPAPGKERELVAAIRSDVSTNYADSVKGRFTISRDNAKNTVYLQMNSLKPEDTAVYYCAARFPWNRVTYDYWGQGTQVTVSS”, the “polyreactivity (PSR sort gate)” value is listed as “low polyreactivity”.
To “QVQLVESGGGLVQAGGSLRLSCAASGSIFSYYAMGWYRQAPGKERELVAVISSSGGRTYYADSVKGRFTISRDNAKNTVYLQMNSLKPEDTAVYYCAAKYRVFYGFDYWGQGTQVTVSS” belongs “high polyreactivity”; to “QVQLVESGGGLVQAGGSLRLSCSASGSIFVRNFMGGYRQSPGKERELVAGISWNGGSTFYADSVKGRFTISRDNAKNTVYLQMNSLKPEDTAVYYCAARGRHSVYYSFPYYYWGQGTQVTVSS”, “low polyreactivity”.
“QVQLVESGGGLVQAGGSLRLSCAASGSTFVVYAMGWYRQAPGKERELVAAIDLSVGDTYYADSVKGRFTISRDNAKNTVYLQMNSLKPEDTAVYYCNVAVYYWRWIYGYWGQGTQVTVSS”: the “polyreactivity (PSR sort gate)” value is given as “low polyreactivity”.
To “QVQLVESGGGLVQAGGSLRLSCAAYGSTITYYPMGWYRQAPGKERELVAAISGSGRTHYADSVKGRFTISRDNAKNTVYLQMISLNPEDTAVYYCNARQYTYNYAFTRCKYDYWGQGTQVTVSS” belongs “high polyreactivity”; to “QVQLVESGGGLVQAGGSLRLSCAASGSTFYRYTMGWYRQAPGTERELVSAISRSGGSTYYADSVKGRFTISRDNAKNTVYLQMNSLKPEDTAVYYCATYGDFKSGYRYGYWGQGTQVTVSS”, “high polyreactivity”.
On to “QVQLVESGGGLVQAGGSLRLSCAASGLTFARYAMGWSRQAPGKERELVAAISSSGGTKYADSVKGRFTISRDNAKNTVYLQMNSLIPEDTAVYYCNADAVVERSSVWYYWSIYEYWGQGTQVTVSS”, for which the “polyreactivity (PSR sort gate)” value is reported as “low polyreactivity”.
Take “QVQLVESGGGLVHAGGSLRLSCAASGSIFSAYAMGWYRQAPGKERELVAAISRSGGRTYYADSVKGRFTISRDNAKNTVYLQMNSLKPEDTAVYYCAAYFTYYSTLGRWYRYDYWGQGTQVTVSS”: the “polyreactivity (PSR sort gate)” value is reported as “high polyreactivity”.
Then “QDQLVESGGGLVQAGGSLRLSCAASGRTFYLYAMGWYRQAPGKERELVARISWGGGRTYYADSVKGRFTISRDNAKNTVYLQMNSLKPEDTAVYYCNAQSPRGFTTTRQVYPLNGYWGQGTQVTVSS”, with “high polyreactivity”.
For “QVQLVESGGGLVQAGGSLRLSCAASGRIFNRNAMGWYRQAPGKERELVAAISRSGDNTYYADSVKGRFTISRDNAKNTVYLQMNSLKPEDTAVYYCAKDGSLDAQSYDYDYWGQGTQVTVSS”, the “polyreactivity (PSR sort gate)” value was “low polyreactivity”.
Then “QVQLVESGGGLVQAGGSLRLSCAASGRIFLGNVMGWYRQAPGKERELVAAISSGGSTNYADSVKGRFTISRDNAKNTVYLQMNSLIPEDTAVYYCAAYFVRDWKLYYYWGQGTQVTVSS”, with “low polyreactivity”; and “QVQLVESGGGLVQAGASLRLSCAASGGTFLIYGRGWYRQAPGKERELVAAISRSGGSTYYADSVKGRFTISRDNAKNTVYLQMNSLKPEDTAVYYCAADSGYLSPYDYWGQGTQVTVSS”, with “low polyreactivity”; and “QVQLVESGGGLVQAGGSLRLSCAASGRTLLAYAMGWYRQAPGKEREFVAAISSRGVRTYYADSVKGRFTISRDNAKNTVYLQMNSLKPEDTAVYYCATRGTKSIKDVPGFRYGYWGQGTQVTVSS”, with “high polyreactivity”.
Then “QVQLVESGGGLFQAGRSLPLSCAASGIIFTQYPMGWYRQAPGKERELVAAISGSGGRTYYADSVKGRFSISRDNEKNTVYLQMKILKPEDTAVYYCAARYARYGNDYWGQCTQVTVSS”, with “high polyreactivity”.
To “QVQLVESGGGLVQAGGSLRLSCAASGRIFLVYVMGWYRQAPGKERELVADITFSGGSTYYADSVKGRFTISRDNAKNTVYLQMNSLKPEDTAVYYCAARKPRSGGPFDYWGQGTQVTVSS” belongs “high polyreactivity”; to “QVQLVESGGGLVQAGGSLRLSCAASGSIFSGNAMGWYRQAPGKERELVAAISRSGTSTYYADSVKGRFTISRDNAKNTVYFQMNSLKPEDTAVYYCNARSYYTLRSDFYYWGQGTQVTVSS”, “high polyreactivity”; to “QVQLVESVGGLVQAGGSLRLSCAASGFTFRANAMGWYRQAPGKERELVAAINWSGTSTYYADSVKGRFTISRDNAKNTVYLQMNSLKPEDTAVYYCAVLFYGAKYDYWGQGTQVTVSS”, “low polyreactivity”.
Consider “QVQLVESGGGLVQAGGSLRLSCAASGYTFAWYAMGWYRQAPGKERELVAAINNGGSTSYADSVKGRFTISRDNAKNTVYLQMNSLKPEDTAVYYCNADHYGGPHWMDYWGQGTQVTVSS”, for which the “polyreactivity (PSR sort gate)” value is “low polyreactivity”.
To “QVQLVESGGGLVQAGGSLRLSCAPSGITFFYNTMGWYRQAPGKERELVAAISVSGGGTYYADSVKARFTISRDNAKNTVYLQMNSLKPEDTAVYYCNKVQVRQRRYDYWGQGTQVTVSS” belongs “low polyreactivity”.
Then “QVQLVESGGGLVQAGGSLRLSCAASGFIFYSNAMGWYRQAPGKERELVAAISWDAGSTYYADSVKGRFTISRDNPKNTVYLQMNSLKPEDTAVYYCATDRIVGRYIYNYWGQGTQVTVSS”, with “high polyreactivity”; and “QVQLVESGGGLVQAGGSLRLSCAASGRIFRYNAMGWYRQAPGKERELVASINQRGGSTYYADSVKGRFTISRDNAKNTVYLQMNSLKPEDTAVYYCAKRFNSGYYYWGQGTQVTVSS”, with “high polyreactivity”.
Take “QVHLVESGGGLVQAGGSLRLSCAASGFTLYGNVMGWYRPAPGKERELVAAISWSTDSTYYADSLKGRFTISRDNAKNTVYLQMNSLKPEDTAIYYCAADYSHLPIAWYYYWGQGTQVTVSS”: the “polyreactivity (PSR sort gate)” value is given as “low polyreactivity”.
For the sequence “QVQLVESGGGLVQAGGSLRLSCAASGFTFGHYAMGRYRQAPGKERELVAAIRWSGGSTYYADSVKGRFTISRDNAKNTVYLQMNSLKPEDTAVYYCAADGEDSLWTGYDYDYWGQGTQVTVSS”, the “polyreactivity (PSR sort gate)” value was “low polyreactivity”.
To “QVQLVESGGGLVHAGGSLRLSCAASGRIFRRYAMGWYRQAPGKERELVASISSGGSTNYADSLKGRFTISRDNAKNTVYLQMNSLNPEDTAVYYCNVYYGYFRSRYCYWGQGTQVTVSS” belongs “high polyreactivity”.
Then “QVQLVESGGGLVQAGGSLRLSSAASGITFRYYTMGWYRQAPGKERELVAAITWSGGSTYYADSVKGRFTISRDNAKNTVYLQMNSLKPEDTAVYYGAADSYRFRYSGYDYWGQGTQVTVSS”, with “high polyreactivity”; and “QVQLVESGGGLVQAGGSHRLSCAASGRIFRSYAMGWYRQAPGKERELVAAISDRGGSTYYADSVKGRFTISRDNAKKTVYVQMNRLKAEDTAVYSCNAPRGGRNTVYYWGQGTQVTVSS”, with “high polyreactivity”; and “QVQLVESGGGLVQAGGSLRLSCAGSGSTFRYYVLGWYRAAPGKDRVLVARITSAASTNYADSVKGRFTISRDNAKTTVNLQMNSLKPEDTPVYYCAADAYWIRSRFLYRIRYNYWGQGTQVTVSS”, with “high polyreactivity”.
Then “QVQLVESGGGLVQAGGSLRLICAASGLTFSIYAMGWYRQAPGKERELVAAITGRGGRTYYADSVKGRFTISRDNAKNTVYLQMNSLKPEDTAVYYCAARYRGTDFDYWGQGTQVTVSS”, with “high polyreactivity”; and “QVQLVESGGGVVQAGGSLRLSCAASGSTFLVNAMGWYRQAPGKERELVAAISRSTGSTYYADSVKGRFTISRDNAKNSVYLQMNSLKPEDTAVYYCAVYRHGYGYNYWGQGTQVTVSS”, with “high polyreactivity”.
Take “QVQHVESGGGLVQAGGSLRLSCAASGFIFGVYDMGWYRQAPGKERELVAAIDCVGSTYYADSVKGRFTISRDNAKNTVYLQMNSLKPEDTAGYYCNAARSRLYYDKYYYWGQGTQVTVSS”: the “polyreactivity (PSR sort gate)” value is recorded as “low polyreactivity”.
In the case of “QVQLVESGGGLVHGGGSLSLSFDASGSIFRVYPMGWYSPAPGKERELVAAIDSGPSTTYADCVTGRFTISRDNAKNTVYLLMNRLKPVDTEVYCFAADGWLWSFTGDGWWFDYWGQGTQVSVSS”, the “polyreactivity (PSR sort gate)” value is given as “low polyreactivity”.
Then “QVQLVESGGGLVQAGGSLRLSCAASGSTFRFYAMGWYRQAPGKERELVATISSSGGTTYYADSVKGRFTISRDNAKNTVYLQMNSLKPEDTAVYYCAKDAFGWGRVYYYRSGYWGQGTQVTVSS”, with “high polyreactivity”; and “QVQLVESGGGLVQAGGSLRLSCAASGSTFDPYAMGWYRQAPGKESELVAAISRNGGRTYYADSVKGRFTISRDNAKNTVYLQMNSLTPEDTAVYYCAARSTGYGSTGRLLWYGHWGQGTQGTVSS”, with “high polyreactivity”.
Then “QVQLVESGGGLVQAGGSLRLSCAASGRTIHFNTMGWYRQAPGKERELVAAIRWGGNTYYADSVKGRFTISRDNAKNTVYLQKNSLKPEDTAVYYCAADRWYYFLMYYWGQGTQVTVSS”, with “low polyreactivity”.
“QDQLVESGGGLVQAGGSLRISCAASGFTLKKYVMGWYRQAPGKERELVAAISSSGGSTYYADSVKGRFTISRDNAKNTVYLQMNSLKPEDTAVYYCAAVQSYAGFEYGYWGQGTQVTVSS”: the “polyreactivity (PSR sort gate)” value was “high polyreactivity”.
“QVQLVESGGGLVQAGGSLRISCAASGSILGLYAMGWYRQAPGKERELVAAITYRGGRTDYADSVKGRFTISRDNAKNTVYLQMNSLKPEDTAVYYCAAGYLPRPRYSTSYLYYYWGQGTQVTVSS”: the “polyreactivity (PSR sort gate)” value is listed as “high polyreactivity”.
For “QVQLVESGGGLVQAGGSLRLSCAASGLTFGGNAMGWYRQAPGKERELVAAISSGGSTNYADSVKGRFTISRDNAKNTVYLQMNSLKPEDTAVYYCAARDRPGNYFTVYGYWGQGTQVTVSS”, the “polyreactivity (PSR sort gate)” value is “low polyreactivity”.
Turning to “QVQLVASGGGLVQAGGSLRLSCAATGSIFYINTMGWYRQAPGKERELVAAINFSDGRTYYADSVMGRFTISRDNAKNTVYLQIHSLKPEDTAVYYCAADVYPSEYDYWGQGTQVTVSS”, the “polyreactivity (PSR sort gate)” value is recorded as “low polyreactivity”.
“QVQLVESGGGLVQAGGSLRLICAASGITFFRNAMGWYRQAPGKERELVATITKSGGSTYYADSVKGRFTISRDNAKNTVYLQMNSLKPDDTSVYYCSAVRRYPVKYVAYDYWGQGTQVTVSS”: the “polyreactivity (PSR sort gate)” value is listed as “low polyreactivity”.
In the case of “QVQLVESGGGLVQAGGSLRLSCAASGSTFVYNAMGWYRQAPGKERELVAAISRGGGITYYADSVKGRFTISRDNAKNTVYLQMNSLKPEDTAVYYCQYLSRGLNTYRSSQGDDDYWGQGTQVTVSS”, the “polyreactivity (PSR sort gate)” value is reported as “high polyreactivity”.
